Reference: patent publication US20180117168A1, “CYCLODEXTRIN-BASED POLYMERS FOR THERAPEUTIC DELIVERY” (priority 2013, published 2018)

Legend:
[1] = test system: Adjuvant-Induced Arthritis (AIA) in Lewis Rat; assay: Lewis rat adjuvant-induced arthritis (AIA) model; format: in vivo; details: for % Max Change in Paw Volume / % Max Change in body weight: day of maximum in brackets; for Spleen weight with treatment (in words): regimens of Table 4
Excerpt: Animal and Facility: 75 female Lewis Rats at the age of 6 weeks were allowed to acclimate for 7 days in the animal facility (Cephrim Biosciences, Inc., Wellesley, Mass.). Animal housing, handling and procedures followed protocols and guidelines approved by the Institutional Animal Care and Use Committee (IACUC) of Cephrim Biosciences, Inc.
In vivo Adjuvant-Induced Arthritis (AIA) in Lewis Rat: The adjuvant used for induction of arthritis was purchased from Chondrex Inc. (Redmond, Wash.), a suspension that contains 10 mg/mL of heat-killed mycobacteria in incomplete Freund's adjuvant. On the day of induction, the rat was first anesthetized and 0.05 mL of the Complete Freund's Adjuvant (CFA) was subcutaneously injected into the sub-plantar area of the rat footpad. The needle was inserted just under the skin of the footpad pointing toward the ankle to maximize the immune response to the CFA. The rat body weight, paw volumes and clinical assessments were monitored closely after the induction. Once the secondary swelling appeared around the opposite rat paws or ankles, the rats were assigned in one of 10 groups (N=5) according to the severity of arthritis (e.g. the paw volume) and the treatments started at that time (see Table 4).
Rat arthritis was evaluated for body weight, paw volumes and clinical score once every other day. Special care including placing water and food gel supplements in the cages were given for those rats once it became difficult to move around due to their hind limb arthritis. The severity of arthritis was scored by visual inspection. Three un-injected paws were scored on a scale of 0 to 4, where 0=normal; 1, only on few digits; 2, on the paw; 3, on the ankle and 4, all swelling below ankle. The maximum score was 12. In addition to daily scores, the maximum arthritis index (MAI) was calculated at the end of the study for each rat by adding the greatest score recorded for each paw. Foot swelling was also determined objectively by measuring paw volume with a plethysmograph for the secondary arthritis (un-injected foot) and thickness using a caliper for the primary arthritis (injected foot).
Treatment Preparation: Dexamethasone stock was first dissolved in dimethyl sulfoxide at 1 mg/ml and kept in dark at room temperature. The corresponding dosing solution was prepared prior to each treatment by a 1:10 fold dilution with phosphate buffered saline (PBS). The dexamethasone dosing solution was given to the rats subcutaneously (SC) at 10 mL/kg. Tofacitinib (unconjugated parent drug) was added in 5% methylcellulose at 1 mg/mL and 0.25% of Tween-80. A homogeneous dosing suspension of tofacitinib was prepared using a mechanical homogenizer. The tofacitinib suspension was prepared daily and was given to rats by an oral gavage at 10 mL/kg. CDP-hexanoate-tofacitinib conjugate nanoparticles were kept in 4° C. until the end of the dosing period. They were given to their respective groups of rats by subcutaneous route at 10 mL/kg.

[2] = Tofacitinib dosed 5 mg PO twice daily; cited from earlier work
[3] = Particle size of formulated nanoparticles (particle sizer); format: physicochemical; details: nanoparticles in water after TFF and 0.22 µm filtration
Procedure: (§1) The reaction mixture was worked up by precipitating the polymer in 15 volumes of acetone (150 mL). The polymer precipitated out immediately as a lump. The solution was stirred for 30 minutes and then the slightly turbid supernatant was decanted. The polymer precipitate was stirred in […] for 30 minutes and then dissolved 70 mL of water to prepare a ˜10 mg/mL polymer concentration. The polymer dissolved smoothly in water and the polymer solution was then filtered through a 0.22 p.m PES membrane. This solution was then washed using TFF (3×30K capsules) using 10 volumes of ultrapure water at pH 3. After diafiltration, the solution was concentrated down to approximately half the volume and the concentrated solution was filtered with a 0.22 p.m cellulose nitrate membrane. The filtered solution was analyzed for particle size using a particle sizer and Tofacitinib concentration using HPLC.
as §1, with “in 90” for “70”

[4] = Drug release and stability of CDP-linker-Tofacitinib conjugate nanoparticles in PBS; format: physicochemical; details: 1x PBS pH 7.4, 37° C.; for In vitro release of free drug (24 hrs in PBS at 37° C.): free drug/conjugated drug
Procedure: The drug release and stability method experiments were run using the following CDP-linker-Tofacitinib nanoparticles: CDP-Gly-Tofac (prepared by the method described in Example 5) and CDP-Hex-Tofac) (prepared by the method described in Example 10).
A 2.5 mg/mL (with regard to polymer) solution of each CDP-linker-Tofac nanoparticle was prepared in lx PBS buffer (pH=7.4). An aliquot of 150 μL was transferred into corresponding HPLC vials. A vial containing each CDP-linker-Tofac nanoparticle in PBS pH 7.4 for each designated time point was placed in a water bath at 37° C. Samples were mixed using a water bath shaker at 100 rpm during the experiments. At each designated time point, a vial was removed for each CDP-linker-Tofac nanoparticle and processed for HPLC using a sample preparation procedure.
To prepare a sample for HPLC analysis, each vial containing 150 μL of sample was mixed with 75 μL of 0.1% formic acid in acetonitrile. If there was any precipitated material in the vial, the contents were also stirred to dissolve the precipitate. If the sample was still opaque, an additional 25 μL of 0.1% formic acid in acetonitrile was added. HPLC analysis was used to determine the amount of free Tofacitinib and the amount of conjugated Tofacitinib in the sample for a given time point.
For the HPLC analysis at each time point, the peak areas of all relevant peaks from the chromatograms were retrieved and the concentration of free and conjugated Tofacitinib was calculated. The sample degradation was calculated based on the percentage of the amount of conjugated drug with regard to the initial starting point of the experiment (at t=0). The drug release was calculated based on the sum of free Tofacitinib and Tofacitinib main degradants at each time point.

[5] = Pharmacokinetic study, plasma levels of free and bound Tofacitinib by HPLC/MS/MS; format: in vivo, Mice (C57 B16 strain); set-up: Cl: unit not given here; details: mice; for AUC / Cl / Vd / t1/2: analyte: Conjugate, single bolus 3 mg/kg; for Bioavailability via SC, of the IV based on AUC / Half-life for conjugate after SC dosing relative to the IV dose: 3 mg/kg SC vs IV; for IV AUC relative to the drug dosed PO alone: conjugate IV vs unconjugated tofacitinib PO
Procedure: Mice (C57 B16 strain) were treated by single bolus injection of each linker at 3 mg/kg. Blood samples were collected from individual animals and plasma made using EDTA as an anticoagulant. Levels of free and bound Tofacitinib were measured in the plasma samples using HPLC/MS/MS.

Row | Compound | Spleen weight with treatment (in words) ([1]; AIA rats) | Dv50 [3] [nm] | Dv90 [3] [nm] | Particle PDI [3] | Zavg [3] [nm] | In vitro degradation of conjugate (24 hrs in PBS at 37° C.) [4] [%] | In vitro release of free drug (24 hrs in PBS at 37° C.) [4] [%] | AUC ([5]; route IV, plasma) [µg·h/mL] | Cl ([5]; route IV, plasma) | Vd ([5]; route IV, plasma) [mL] | t1/2 ([5]; route IV, plasma) [h] | AUC ([5]; route SC, plasma) [µg·h/mL] | Cl ([5]; route SC, plasma) | Vd ([5]; route SC, plasma) [mL] | t1/2 ([5]; route SC, plasma) [h] | Half-life for conjugate after SC dosing relative to the IV dose [5] | IV AUC relative to the drug dosed PO alone [5] [×] | other results
1 | C[C@@H]1C[C@H]2[C@@H]3CCC4=CC(=O)C=C[C@]4(C)[C@@]3(F)[C@@H](O)C[C@]2(C)[C@@]1(O)C(=O)CO [Dexamethasone, reference compound] | declined |  |  |  |  |  |  |  |  |  |  |  |  |  |  |  |  | AVE Spleen Weight ([1]; 1 mg/kg, q2d x 7, sc): 0.253 g; MAI (maximum arthritis index) ([1]; 1 mg/kg, q2d x 7, sc): 29; % Max Change in Paw Volume ([1]; 1 mg/kg, q2d x 7, sc): +26.5% (d13); % Max Change in body weight ([1]; 1 mg/kg, q2d x 7, sc): −13.5% (d18)
2 | C[C@@H]1CCN(C(=O)CC#N)C[C@@H]1N(C)c1ncnc2[nH]ccc12 [Tofacitinib, reference compound] | declined |  |  |  |  |  |  |  |  |  |  |  |  |  |  |  |  | AVE Spleen Weight ([1]; 10 mg/kg, bid x 14, po): 0.392 g; MAI (maximum arthritis index) ([1]; 10 mg/kg, bid x 14, po): 30; % Max Change in Paw Volume ([1]; 10 mg/kg, bid x 14, po): +30.7% (D14); % Max Change in body weight ([1]; 10 mg/kg, bid x 14, po): −9.0% (d13); half-life [2]: 3 to 5 h
3 | CDP-Tofacitinib Ethylene Glycol Monoglycinate [CDP-Glycine-Tofacitinib] |  | 11.4 | 19.8 | 0.418 | 26.23 | 15.23 | 9.45 | 2061.85 | 0.04 | 2.6 | 50 | 1254.162 | 0.06 | 2.4 | 28 | doubling of half-life | ~1000 | In vitro release of free drug (24 hrs in PBS at 37° C.) ([4]; listed as CDP-Glycine-Tofac): 9.45%; Bioavailability via SC, of the IV based on AUC [5]: 60%; Free levels, of the circulating conjugate ([5]; 3 mg/kg, plasma): less than 1%
4 | CDP-Tofacitinib Ethylene Glycol Monohexanoate [CDP-Hexanoate-Tofacitinib] | maintained | 12.8 | 21.7 | 0.218 | 20.64 | 3.54 | 2.06 | 1030.865 | 0.07 | 2.4 | 23.2 | 569.866 | 0.132 | 8.9 | 47 | increased by two fold | ~1000 | AVE Spleen Weight ([1]; 0.3 mg/kg, q7d x 2, sc): 0.643 g; MAI (maximum arthritis index) ([1]; 0.3 mg/kg, q7d x 2, sc): 41; % Max Change in Paw Volume ([1]; 0.3 mg/kg, q7d x 2, sc): +48.0% (d16); % Max Change in body weight ([1]; 0.3 mg/kg, q7d x 2, sc): −12.9% (d16); AVE Spleen Weight ([1]; 1 mg/kg, q7d x 2, sc): 0.642 g; MAI (maximum arthritis index) ([1]; 1 mg/kg, q7d x 2, sc): 46; % Max Change in Paw Volume ([1]; 1 mg/kg, q7d x 2, sc): +45.2% (d16); % Max Change in body weight ([1]; 1 mg/kg, q7d x 2, sc): −14.5% (d18); Paw volume as a percent of the initial paw volume (Day 1) ([1]; 3 mg/kg q7d×2 sc, after two cycles (28 days), FIG. 16): below 100%; AVE Spleen Weight ([1]; 3 mg/kg, q7d x 2, sc): 0.606 g; MAI (maximum arthritis index) ([1]; 3 mg/kg, q7d x 2, sc): 39; % Max Change in Paw Volume ([1]; 3 mg/kg, q7d x 2, sc): +42.5% (d16); % Max Change in body weight ([1]; 3 mg/kg, q7d x 2, sc): −9.3% (d13); Cumulative dose giving similar efficacy, of the cumulative dose of unconjugated tofacitinib ([1]; 3 mg/kg/week vs. 140 mg/kg/week): 2%; Ankle swelling after treatment, of initial paw volume ([1]; AIA rats, level of healthy rats): 100%; In vitro release of free drug (24 hrs in PBS at 37° C.) ([4]; listed as CDP-Hex-Tofac): 2.06%; Bioavailability via SC, of the IV based on AUC ([5]; 3 mg/kg): 60%; Bioavailability via SC, of the IV based on AUC ([5]; listed as CDP-Hexanoate-Tofacitinib Conjugate, 3 mg/kg): approximately 60%; Levels of released drug, of the total ([5]; 3 mg/kg, plasma): approximately 5%
